# Tests used:
# Experiment in all cases: SEC
# [1] = biological target: PEDV 3CL^pro variant Q295A (porcine epidemic diarrhea virus (FJZZ strain))
# [2] = biological target: PEDV 3CL^pro variant R4A (porcine epidemic diarrhea virus (FJZZ strain))
# [3] = biological target: PEDV 3CL^pro variant R294A (porcine epidemic diarrhea virus (FJZZ strain))
# [4] = biological target: PEDV 3CL^pro variant S138A (porcine epidemic diarrhea virus (FJZZ strain))
substance,measurement,setting,value
PEDV 3CL^pro variant Q295A (enzyme),stoichiometry N,[1],2
PEDV 3CL^pro variant R4A (enzyme),stoichiometry N,[2],2
PEDV 3CL^pro variant R294A (enzyme),stoichiometry N,[3],2
PEDV 3CL^pro variant S138A (enzyme),stoichiometry N,[4],2

# Source: paper PMC7111274
